One assay has as its target T1, FcγRIIb (human, UniProt P31994 43-217).
T1 construct: extracellular domain; also called FcgRIIb
T1 sequence (looked up): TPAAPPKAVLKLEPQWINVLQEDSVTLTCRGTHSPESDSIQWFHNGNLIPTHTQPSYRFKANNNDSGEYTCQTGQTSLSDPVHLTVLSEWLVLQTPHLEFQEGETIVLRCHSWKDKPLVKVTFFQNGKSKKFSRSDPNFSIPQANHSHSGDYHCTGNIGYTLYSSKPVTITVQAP
Put plainly: SPR (Biacore), captured antibody, FcγR analyte; binding relative to GpH7-A5/GpH7-B3/GpL16-k0 = 100. In general terms: Surface plasmon resonance follows binding to a sensor surface in real time, without labels.

In assay [1] the target is T2, FcγRIIa R (human, UniProt P12318 34-217).
T2 construct: extracellular domain; also called FcgRIIa R; FcγRIIa type R
T2 sequence (looked up): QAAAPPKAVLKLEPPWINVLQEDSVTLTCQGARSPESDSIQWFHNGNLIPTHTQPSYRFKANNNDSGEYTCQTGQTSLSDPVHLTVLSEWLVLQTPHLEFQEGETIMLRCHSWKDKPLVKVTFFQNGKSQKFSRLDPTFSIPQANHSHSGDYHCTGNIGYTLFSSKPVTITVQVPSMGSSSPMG
The assay is described as above.

Assay [2] addresses T2, FcγRIIa R. Put plainly: He/Con_2aR divided by He/Con_2b (FcγRIIa R over FcγRIIb); SPR (Biacore).
The target in assay [3] is T3, FcγRIIa R (human, UniProt P12318 34-217).
T3 construct: extracellular domain; Soluble extracellular domain with C-terminal His tag, expressed in FreeStyle293 cells; also called FcgRIIa R; FcγRIIa type R; not shown: His tag attached to the C terminus
T3 sequence (looked up): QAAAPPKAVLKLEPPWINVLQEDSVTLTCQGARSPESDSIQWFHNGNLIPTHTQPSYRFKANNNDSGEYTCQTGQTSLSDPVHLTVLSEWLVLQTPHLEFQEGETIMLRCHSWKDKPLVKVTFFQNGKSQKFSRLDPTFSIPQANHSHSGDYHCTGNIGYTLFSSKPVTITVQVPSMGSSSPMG
The assay can be described thus: SPR (Biacore), antibody captured via antigen peptide, FcγRIIa R as analyte; homodimerized antibody. How it is done:
Analysis of interaction between objective antibody and the FcγR was carried out using Biacore T100 (GE Healthcare). HBS-EP+ (GE Healthcare) was used as the running buffer, and the measurement temperature was set to 25° C. Chips produced by immobilizing the antigen peptide by the amine coupling method to a Series S Sencor Chip CM5 (GE Healthcare), or alternatively, chips produced by allowing preliminarily biotinylated antigen peptides to interact with and immobilize onto a Series S Sensor Chip SA (certified) (GE Healthcare) were used. Antibodies of interest were captured onto an antigen peptide-immobilized chip, and allowed to interact to each FcγR diluted with running buffer. To regenerate and repeatedly use the chip, the antibodies captured on the chip were washed off by reacting 10 mM glycine-HCl, pH 1.5.

B1: GpH7-A5/GpH7-B3 variant S298_20W/GpL16-k0 (antibody, human IgG1, kappa)
heavy 1: not shown
heavy 2: not shown
light: DIVMTQSPLSLPVTPGEPASISCQASESLVHSNRNTYLHWYLQKPGQSPQLLIYKVSNRFSGVPDRFSGSGSGTDFTLKISRVEAEDVGVYYCSQNTHVPPTFGQGTKVEIERTVAAPSVFIFPPSDEQLKSGTASVVCLLNNFYPREAKVQWKVDNALQSGNSQESVTEQDSKDSTYSLSSTLTLSKADYEKHKVYACEVTHQGLSSPVTKSFNRGEC
notes: He Ab; IgG1; mutation in one H chain only
On to B1, for which, in the assay with FcγRIIb, the “He/Con_2b (IIb binding)” value turned out to be 41.1 control=100. The “He/Con_2aR (IIaR binding)” value with FcγRIIa R [1] turned out to be 55.4 control=100. In the assay with FcγRIIa R [2], the “IIaR/IIb (He_2aR/2b)” value is 1.35 ratio.

B2: GpH7-B3 variant T335_15Y/GpL16-k0 (antibody, human IgG1, kappa)
heavy: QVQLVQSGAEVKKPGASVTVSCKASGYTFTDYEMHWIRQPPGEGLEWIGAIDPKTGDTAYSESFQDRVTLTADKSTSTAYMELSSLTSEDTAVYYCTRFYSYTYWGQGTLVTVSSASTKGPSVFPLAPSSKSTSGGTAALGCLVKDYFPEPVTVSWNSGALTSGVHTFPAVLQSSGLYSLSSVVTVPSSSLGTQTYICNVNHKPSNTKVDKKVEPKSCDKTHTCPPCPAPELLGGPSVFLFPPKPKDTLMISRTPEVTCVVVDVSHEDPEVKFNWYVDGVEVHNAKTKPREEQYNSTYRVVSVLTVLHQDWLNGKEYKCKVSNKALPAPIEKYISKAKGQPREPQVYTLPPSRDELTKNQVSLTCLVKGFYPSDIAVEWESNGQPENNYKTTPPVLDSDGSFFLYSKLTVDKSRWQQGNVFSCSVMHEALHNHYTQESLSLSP
light: DIVMTQSPLSLPVTPGEPASISCQASESLVHSNRNTYLHWYLQKPGQSPQLLIYKVSNRFSGVPDRFSGSGSGTDFTLKISRVEAEDVGVYYCSQNTHVPPTFGQGTKVEIERTVAAPSVFIFPPSDEQLKSGTASVVCLLNNFYPREAKVQWKVDNALQSGNSQESVTEQDSKDSTYSLSSTLTLSKADYEKHKVYACEVTHQGLSSPVTKSFNRGEC
notes: homodimerized; mutation in both H chains; also called Ho Ab
Take B2: in the assay with FcγRIIa R [3], the Ho/Con_2aR is 107 % of control (GpH7-B3/GpL16-k0 = 100).

B3: GpH7-B3 variant G236_09D/GpL16-k0 (antibody, human IgG1, kappa)
heavy: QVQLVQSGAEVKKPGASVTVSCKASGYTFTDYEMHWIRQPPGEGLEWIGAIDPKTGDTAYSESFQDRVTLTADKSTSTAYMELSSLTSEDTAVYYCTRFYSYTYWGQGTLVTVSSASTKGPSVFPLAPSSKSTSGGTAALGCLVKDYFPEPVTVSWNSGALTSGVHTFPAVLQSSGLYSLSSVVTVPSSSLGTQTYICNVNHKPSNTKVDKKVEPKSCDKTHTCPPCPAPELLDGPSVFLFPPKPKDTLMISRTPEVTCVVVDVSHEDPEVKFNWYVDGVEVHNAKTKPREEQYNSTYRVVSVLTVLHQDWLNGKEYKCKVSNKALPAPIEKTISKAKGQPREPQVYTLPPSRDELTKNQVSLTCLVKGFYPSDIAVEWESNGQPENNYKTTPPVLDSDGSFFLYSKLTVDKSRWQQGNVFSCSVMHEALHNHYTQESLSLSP
light: DIVMTQSPLSLPVTPGEPASISCQASESLVHSNRNTYLHWYLQKPGQSPQLLIYKVSNRFSGVPDRFSGSGSGTDFTLKISRVEAEDVGVYYCSQNTHVPPTFGQGTKVEIERTVAAPSVFIFPPSDEQLKSGTASVVCLLNNFYPREAKVQWKVDNALQSGNSQESVTEQDSKDSTYSLSSTLTLSKADYEKHKVYACEVTHQGLSSPVTKSFNRGEC
notes: as for B2
For the molecule B3, the Ho/Con_2aR in the assay with FcγRIIa R [3] is 107 % of control (GpH7-B3/GpL16-k0 = 100).

B4: GpH7-B3 variant G236_10E/GpL16-k0 (antibody, human IgG1, kappa)
heavy: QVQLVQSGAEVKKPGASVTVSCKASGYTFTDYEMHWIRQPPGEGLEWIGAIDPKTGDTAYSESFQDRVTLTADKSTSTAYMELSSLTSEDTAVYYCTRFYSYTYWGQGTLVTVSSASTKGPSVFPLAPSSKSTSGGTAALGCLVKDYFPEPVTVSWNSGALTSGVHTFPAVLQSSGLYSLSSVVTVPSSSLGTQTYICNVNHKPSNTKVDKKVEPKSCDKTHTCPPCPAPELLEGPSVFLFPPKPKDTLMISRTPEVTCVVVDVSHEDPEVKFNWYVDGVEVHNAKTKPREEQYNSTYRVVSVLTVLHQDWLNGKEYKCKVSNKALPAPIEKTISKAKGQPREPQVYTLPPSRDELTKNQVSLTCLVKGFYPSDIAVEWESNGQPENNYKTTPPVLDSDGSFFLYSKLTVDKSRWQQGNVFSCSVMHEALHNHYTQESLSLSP
light: DIVMTQSPLSLPVTPGEPASISCQASESLVHSNRNTYLHWYLQKPGQSPQLLIYKVSNRFSGVPDRFSGSGSGTDFTLKISRVEAEDVGVYYCSQNTHVPPTFGQGTKVEIERTVAAPSVFIFPPSDEQLKSGTASVVCLLNNFYPREAKVQWKVDNALQSGNSQESVTEQDSKDSTYSLSSTLTLSKADYEKHKVYACEVTHQGLSSPVTKSFNRGEC
notes: as for B2
Consider B4, for which the Ho/Con_2aR with FcγRIIa R [3] is 140 % of control (GpH7-B3/GpL16-k0 = 100).

B5: GpH7-B3 variant I332_09D/GpL16-k0 (antibody, human IgG1, kappa)
heavy: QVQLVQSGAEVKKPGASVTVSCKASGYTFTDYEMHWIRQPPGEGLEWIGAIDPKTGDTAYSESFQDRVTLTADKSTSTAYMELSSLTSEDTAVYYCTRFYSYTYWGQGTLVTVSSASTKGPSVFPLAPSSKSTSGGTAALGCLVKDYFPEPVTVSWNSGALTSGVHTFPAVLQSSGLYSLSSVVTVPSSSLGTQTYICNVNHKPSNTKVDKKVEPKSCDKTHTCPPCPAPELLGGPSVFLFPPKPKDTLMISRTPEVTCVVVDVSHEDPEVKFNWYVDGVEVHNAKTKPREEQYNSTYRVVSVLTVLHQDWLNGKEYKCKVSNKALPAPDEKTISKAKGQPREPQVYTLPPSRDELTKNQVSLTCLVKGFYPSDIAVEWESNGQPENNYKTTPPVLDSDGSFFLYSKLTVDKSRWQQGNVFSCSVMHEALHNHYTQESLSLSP
light: DIVMTQSPLSLPVTPGEPASISCQASESLVHSNRNTYLHWYLQKPGQSPQLLIYKVSNRFSGVPDRFSGSGSGTDFTLKISRVEAEDVGVYYCSQNTHVPPTFGQGTKVEIERTVAAPSVFIFPPSDEQLKSGTASVVCLLNNFYPREAKVQWKVDNALQSGNSQESVTEQDSKDSTYSLSSTLTLSKADYEKHKVYACEVTHQGLSSPVTKSFNRGEC
notes: as for B2
Take B5: in the assay with FcγRIIa R [3], the Ho/Con_2aR was 127 % of control (GpH7-B3/GpL16-k0 = 100).

B6: GpH7-B3 variant I332_04F/GpL16-k0 (antibody, human IgG1, kappa)
heavy: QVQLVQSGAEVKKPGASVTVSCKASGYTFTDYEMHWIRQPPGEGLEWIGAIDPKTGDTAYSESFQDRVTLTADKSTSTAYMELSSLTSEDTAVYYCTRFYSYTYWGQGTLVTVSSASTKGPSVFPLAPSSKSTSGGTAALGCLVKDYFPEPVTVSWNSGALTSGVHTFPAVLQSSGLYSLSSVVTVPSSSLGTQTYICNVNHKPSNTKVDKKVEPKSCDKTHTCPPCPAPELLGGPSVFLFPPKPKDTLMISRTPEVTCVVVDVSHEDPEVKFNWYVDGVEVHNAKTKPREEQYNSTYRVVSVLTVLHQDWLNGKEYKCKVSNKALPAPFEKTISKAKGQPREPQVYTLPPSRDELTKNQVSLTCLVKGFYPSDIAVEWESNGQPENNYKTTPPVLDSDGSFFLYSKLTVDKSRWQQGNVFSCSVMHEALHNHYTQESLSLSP
light: DIVMTQSPLSLPVTPGEPASISCQASESLVHSNRNTYLHWYLQKPGQSPQLLIYKVSNRFSGVPDRFSGSGSGTDFTLKISRVEAEDVGVYYCSQNTHVPPTFGQGTKVEIERTVAAPSVFIFPPSDEQLKSGTASVVCLLNNFYPREAKVQWKVDNALQSGNSQESVTEQDSKDSTYSLSSTLTLSKADYEKHKVYACEVTHQGLSSPVTKSFNRGEC
notes: as for B2
As for B6, in the assay with FcγRIIa R [3], the Ho/Con_2aR is 109 % of control (GpH7-B3/GpL16-k0 = 100).

B7: GpH7-B3 variant K326_09D/GpL16-k0 (antibody, human IgG1, kappa)
heavy: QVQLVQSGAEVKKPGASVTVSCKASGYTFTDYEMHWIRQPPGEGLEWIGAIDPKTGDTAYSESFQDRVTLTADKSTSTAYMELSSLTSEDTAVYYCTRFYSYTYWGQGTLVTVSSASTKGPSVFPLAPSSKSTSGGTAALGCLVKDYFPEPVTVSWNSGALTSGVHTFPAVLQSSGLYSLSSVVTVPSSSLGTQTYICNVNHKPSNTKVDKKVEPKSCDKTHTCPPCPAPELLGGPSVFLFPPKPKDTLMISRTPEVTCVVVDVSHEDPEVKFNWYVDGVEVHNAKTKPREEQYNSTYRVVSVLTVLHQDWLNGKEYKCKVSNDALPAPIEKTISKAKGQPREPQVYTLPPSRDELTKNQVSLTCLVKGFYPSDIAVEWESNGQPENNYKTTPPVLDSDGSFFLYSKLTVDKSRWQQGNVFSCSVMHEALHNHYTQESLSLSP
light: DIVMTQSPLSLPVTPGEPASISCQASESLVHSNRNTYLHWYLQKPGQSPQLLIYKVSNRFSGVPDRFSGSGSGTDFTLKISRVEAEDVGVYYCSQNTHVPPTFGQGTKVEIERTVAAPSVFIFPPSDEQLKSGTASVVCLLNNFYPREAKVQWKVDNALQSGNSQESVTEQDSKDSTYSLSSTLTLSKADYEKHKVYACEVTHQGLSSPVTKSFNRGEC
notes: as for B2
Regarding B7, the Ho/Con_2aR with FcγRIIa R [3] is 158 % of control (GpH7-B3/GpL16-k0 = 100).

B8: GpH7-B3 variant H268_10E/GpL16-k0 (antibody, human IgG1, kappa)
heavy: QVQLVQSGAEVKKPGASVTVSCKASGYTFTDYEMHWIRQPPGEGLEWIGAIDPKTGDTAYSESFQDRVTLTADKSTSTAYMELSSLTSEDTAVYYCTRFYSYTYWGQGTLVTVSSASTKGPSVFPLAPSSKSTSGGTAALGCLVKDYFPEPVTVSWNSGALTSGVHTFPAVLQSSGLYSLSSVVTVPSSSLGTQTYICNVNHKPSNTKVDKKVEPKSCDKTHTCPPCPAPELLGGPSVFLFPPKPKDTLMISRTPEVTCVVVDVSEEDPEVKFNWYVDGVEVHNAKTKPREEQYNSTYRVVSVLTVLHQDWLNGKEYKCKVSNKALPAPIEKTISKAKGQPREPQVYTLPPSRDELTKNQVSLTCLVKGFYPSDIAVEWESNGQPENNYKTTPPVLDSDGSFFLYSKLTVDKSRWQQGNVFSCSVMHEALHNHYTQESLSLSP
light: DIVMTQSPLSLPVTPGEPASISCQASESLVHSNRNTYLHWYLQKPGQSPQLLIYKVSNRFSGVPDRFSGSGSGTDFTLKISRVEAEDVGVYYCSQNTHVPPTFGQGTKVEIERTVAAPSVFIFPPSDEQLKSGTASVVCLLNNFYPREAKVQWKVDNALQSGNSQESVTEQDSKDSTYSLSSTLTLSKADYEKHKVYACEVTHQGLSSPVTKSFNRGEC
notes: as for B2
As for B8, the Ho/Con_2aR in the assay with FcγRIIa R [3] is 154 % of control (GpH7-B3/GpL16-k0 = 100).

Values taken from US20180155451A1 (published 2018).
